Test results: US20040172681

Tested on: FasA from Brevibacterium ammoniagenes (multifunctional fatty acid synthase)
Sequence (chain, as listed by the source): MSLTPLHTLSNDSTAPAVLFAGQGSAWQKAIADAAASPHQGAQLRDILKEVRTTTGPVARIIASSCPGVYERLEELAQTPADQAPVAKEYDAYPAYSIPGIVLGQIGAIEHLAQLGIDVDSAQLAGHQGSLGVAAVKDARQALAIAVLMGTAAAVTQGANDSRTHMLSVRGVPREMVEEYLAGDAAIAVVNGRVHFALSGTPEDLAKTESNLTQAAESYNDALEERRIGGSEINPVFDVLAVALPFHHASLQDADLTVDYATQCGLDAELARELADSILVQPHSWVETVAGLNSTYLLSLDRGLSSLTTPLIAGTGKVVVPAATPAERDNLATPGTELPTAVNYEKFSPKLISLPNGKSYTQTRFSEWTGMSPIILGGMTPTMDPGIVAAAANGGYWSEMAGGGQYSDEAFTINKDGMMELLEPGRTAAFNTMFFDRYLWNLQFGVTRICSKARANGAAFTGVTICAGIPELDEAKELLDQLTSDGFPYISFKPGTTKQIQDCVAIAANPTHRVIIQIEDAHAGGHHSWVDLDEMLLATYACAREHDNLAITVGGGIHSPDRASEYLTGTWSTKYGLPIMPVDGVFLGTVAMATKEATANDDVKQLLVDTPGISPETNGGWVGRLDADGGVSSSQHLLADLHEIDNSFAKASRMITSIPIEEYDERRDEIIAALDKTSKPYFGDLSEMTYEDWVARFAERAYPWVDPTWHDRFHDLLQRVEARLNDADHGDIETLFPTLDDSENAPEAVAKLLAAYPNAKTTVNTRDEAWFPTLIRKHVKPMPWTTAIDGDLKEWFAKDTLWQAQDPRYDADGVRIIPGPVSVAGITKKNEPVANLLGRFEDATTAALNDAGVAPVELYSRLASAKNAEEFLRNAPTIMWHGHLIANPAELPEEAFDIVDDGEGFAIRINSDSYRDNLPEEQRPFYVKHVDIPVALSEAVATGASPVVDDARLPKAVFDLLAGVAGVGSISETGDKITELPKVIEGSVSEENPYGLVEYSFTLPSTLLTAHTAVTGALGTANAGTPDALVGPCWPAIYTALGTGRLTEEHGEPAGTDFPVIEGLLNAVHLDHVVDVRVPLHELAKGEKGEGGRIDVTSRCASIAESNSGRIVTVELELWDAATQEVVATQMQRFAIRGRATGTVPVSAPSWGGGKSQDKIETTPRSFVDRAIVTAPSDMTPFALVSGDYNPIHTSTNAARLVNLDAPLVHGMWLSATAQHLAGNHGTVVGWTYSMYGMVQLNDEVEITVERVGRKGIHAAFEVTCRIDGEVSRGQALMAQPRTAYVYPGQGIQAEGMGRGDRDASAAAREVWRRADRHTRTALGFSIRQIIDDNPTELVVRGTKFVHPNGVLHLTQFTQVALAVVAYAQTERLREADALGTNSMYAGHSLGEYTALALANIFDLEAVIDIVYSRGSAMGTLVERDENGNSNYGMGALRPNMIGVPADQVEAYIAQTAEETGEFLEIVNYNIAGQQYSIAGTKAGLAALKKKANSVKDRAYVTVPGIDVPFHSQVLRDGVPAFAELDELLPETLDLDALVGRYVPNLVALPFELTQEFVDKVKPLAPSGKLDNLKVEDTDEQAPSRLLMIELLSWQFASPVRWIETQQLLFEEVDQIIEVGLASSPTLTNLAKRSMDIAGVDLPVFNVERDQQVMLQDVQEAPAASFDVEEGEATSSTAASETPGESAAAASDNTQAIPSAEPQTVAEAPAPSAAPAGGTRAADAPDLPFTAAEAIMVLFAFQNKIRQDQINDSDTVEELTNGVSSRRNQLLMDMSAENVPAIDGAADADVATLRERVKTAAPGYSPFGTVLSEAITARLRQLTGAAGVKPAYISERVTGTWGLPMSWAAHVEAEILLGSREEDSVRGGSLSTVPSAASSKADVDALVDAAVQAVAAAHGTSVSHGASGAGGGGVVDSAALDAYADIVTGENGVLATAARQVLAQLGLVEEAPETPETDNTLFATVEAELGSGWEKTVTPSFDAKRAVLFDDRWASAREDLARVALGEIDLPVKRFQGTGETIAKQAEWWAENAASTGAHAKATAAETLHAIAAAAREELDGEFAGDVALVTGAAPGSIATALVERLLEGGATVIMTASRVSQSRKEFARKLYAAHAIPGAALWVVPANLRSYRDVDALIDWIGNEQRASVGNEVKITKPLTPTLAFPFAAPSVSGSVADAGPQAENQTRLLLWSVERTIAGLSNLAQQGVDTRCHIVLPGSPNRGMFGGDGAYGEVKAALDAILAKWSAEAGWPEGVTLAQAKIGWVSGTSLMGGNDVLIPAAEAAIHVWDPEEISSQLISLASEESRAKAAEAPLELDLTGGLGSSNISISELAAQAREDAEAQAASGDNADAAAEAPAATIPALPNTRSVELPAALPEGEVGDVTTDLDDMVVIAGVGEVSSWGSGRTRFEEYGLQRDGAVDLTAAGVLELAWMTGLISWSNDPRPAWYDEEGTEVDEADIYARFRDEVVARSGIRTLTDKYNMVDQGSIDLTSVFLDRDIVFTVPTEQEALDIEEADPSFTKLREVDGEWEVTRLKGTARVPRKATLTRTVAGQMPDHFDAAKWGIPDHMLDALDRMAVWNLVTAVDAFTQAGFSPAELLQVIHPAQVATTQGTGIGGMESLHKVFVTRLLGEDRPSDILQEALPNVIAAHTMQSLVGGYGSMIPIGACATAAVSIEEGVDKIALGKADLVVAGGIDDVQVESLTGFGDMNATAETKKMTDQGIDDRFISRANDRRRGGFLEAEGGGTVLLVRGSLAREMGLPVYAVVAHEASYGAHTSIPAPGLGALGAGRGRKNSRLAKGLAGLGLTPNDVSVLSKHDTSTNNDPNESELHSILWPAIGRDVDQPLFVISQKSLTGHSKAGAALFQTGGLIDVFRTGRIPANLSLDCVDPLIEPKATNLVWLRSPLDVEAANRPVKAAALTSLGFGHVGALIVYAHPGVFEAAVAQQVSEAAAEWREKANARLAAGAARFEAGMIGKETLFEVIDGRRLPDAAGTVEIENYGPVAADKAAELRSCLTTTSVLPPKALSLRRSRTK

B1: phosphopantetheine:protein transferase (PPT1) enzyme from B. ammoniagenes, expressed in E. coli as a lacZ fusion protein (enzyme, part only; not given: N-terminal lacZ fusion residues)
chain, part: MLDNREAMTVGVDLVHIPGFAEQLSRPGSTFEQVFSPLERRHAQTRRDAAADATNSSLAGSRTEHLAGRWAAKEAFIKAWSQAIYGKPPVIEPDLVNFAEIEVLPDRWGRVALQLKGEVAAKLQESIDVELALSISHDGDYATAQCLLRYQR
fasA activity (radiochemical assay at 37 C for 15 minutes on partially purified E. coli extracts): only when the fasA cosmid (FA) and the pSU19/ppt1 (P) construct were both present was there any measurable fasA activity
